What is called Kd is the equilibrium constant for the complex coming apart.

This test has as its target T1, recombinant human Gal3 full-length (Hu-Gal3-FL) (Homo sapiens, UniProt P17931).
T1 construct: recombinant human Gal3 full-length (Hu-Gal3-FL); purchased Novalix
Nature of the test: SPR (Biacore T-200) affinity on human full-length Gal3. It is filed as binding. Conditions: full-length Gal3, 25° C. As for the experimental part:
The interaction of the anti-Gal3 antibody with recombinant human Gal3 full-length (Hu-Gal3-FL) and murine Gal3 (m-Gal3-FL) (from Novalix) was monitored by surface plasmon resonance (SPR) detection using a Biacore T-200 instrument.
Binding studies were performed in freshly prepared, filtered and degassed running buffer containing 10 mM HEPES, 150 mM NaCl, and 0.05% P20 (HBS-P, Cytiva Life Sciences) at 25° C. Before performing the binding studies, the CM5 sensor surface immobilized with anti-human Fc mAb was equilibrated with HBS-P by priming the instrument at least three to four times.
The CM5 sensor surface was first immobilized with an anti-human Fc mAb using a standard protocol. The entire sensor surface was first activated by injecting a 1:1 (v/v) mixture of 400 mM EDC and 100 mM NHS at a flow rate of 10 μL/minute for 7 minutes. Monoclonal anti-human Fc antibody (Millipore AP113), 25 μg/mL in Na acetate pH5, 360 s were flowed at 10 μL/minute to reach 10000 RU on both flow cells followed by the injection of 1 M ethanolamine, pH8.5 for 7 minutes at a flow rate of 10 μL/minute. During the entire immobilization procedure, HBS-P was used as the running buffer.
Antibody samples were prepared at 5 μg/ml and were injected for 30 seconds at 10 μL/minute. In general, 400 to 680 resonance units of antibodies were captured on the chip.
On the technique in general: In SPR one partner is held on a chip, and binding of the other changes the refractive index at the surface.

T1 sequence (P17931 whole entry): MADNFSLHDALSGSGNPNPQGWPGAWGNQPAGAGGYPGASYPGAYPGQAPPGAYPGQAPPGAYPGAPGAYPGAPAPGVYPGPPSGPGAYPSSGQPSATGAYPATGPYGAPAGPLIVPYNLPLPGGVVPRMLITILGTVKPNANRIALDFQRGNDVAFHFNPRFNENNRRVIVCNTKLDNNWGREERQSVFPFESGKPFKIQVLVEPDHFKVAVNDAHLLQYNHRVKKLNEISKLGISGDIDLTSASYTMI

B1: H10-G1: germline framework variant of H10; Table 3 lists H10-G with VH SEQ ID NO 90, VL SEQ ID NO 91 (antibody, V domains shown)
VH: EVQLVESGGGLVKPGGSLRLSCAASGFTFSNYYMNWVRQAPGKGLEWISYINGASRDISYADSVKGRFTISRDNAKNSLYLQMNSLRAEDTAVYYCVRSSYGYSNYGSGMDVWGRGTLVTVSS
VL: QSALTQPASVSGSPGQSITISCTGTSSDVGGSYNVAWYQQHPGKAPKLMIYNDANRPSGVSNRFSGSKSGNTASLTISGLQAEDEADYYCSSNTADSTRVFGGGTKLEIK
B1: the Kd was 4.9 nM.

(Values after US20250215091A1, “Anti-GAL3 Antibodies and Compositions” (Les Laboratoires Servier, priority 2022, published 2025).)
